From article PMC7085345 (The Biochemical journal, 2019) come the findings set out here.

Read-outs that look alike come from different tables or passages of the source.

Holding throughout (assay): FRET or BRET
A general note: Bioluminescence resonance energy transfer reports proximity on the nanometre scale.

Data set [1] concerns the molecule itself.
Data set [2] concerns the molecule itself. This is another data set of the same source.
Data set [3] concerns the molecule itself. The source holds these as a separate data set.
Data set [4] concerns the molecule itself. This is another data set of the same source.
Data set [5] deals with the molecule itself. This is another data set of the same source.

B1: CYP2E1-BODIPY(1:2): N-terminally truncated (Δ3–20), C-terminally His-tagged CYP2E1 labeled with BODIPY 577/618 maleimide at 1:2 protein-to-label ratio (enzyme, human, UniProt P05181 1-493, looked up)
chain: MSSMWRQVHSSWNLPPGPFPLPIIGNLFQLELKNIPKSFTRLAQRFGPVFTLYVGSQRMVVMHGYKAVKEALLDYKDEFSGRGDLPAFHAHRDRGIIFNNGPTWKDIRRFSLTTLRNYGMGKQGNESRIQREAHFLLEALRKTQGQPFDPTFLIGCAPCNVIADILFRKHFDYNDEKFLRLMYLFNENFHLLSTPWLQLYNNFPSFLHYLPGSHRKVIKNVAEVKEYVSERVKEHHQSLDPNCPRDLTDCLLVEMEKEKHSAERLYTMDGITVTVADLFFAGTETTSTTLRYGLLILMKYPEIEEKLHEEIDRVIGPSRIPAIKDRQEMPYMDAVVHEIQRFITLVPSNLPHEATRDTIFRGYLIPKGTVVVPTLDSVLYDNQEFPDPEKFKPEHFLNENGKFKYSDYFKPFSTGKRVCAGEGLARMELFLLLCAILQHFNLKPLVDPKDIDLSPIHIGFGCIPPRYKLCVIPRS
modifications: BODIPY 577/618 maleimide on cysteines, two molar equivalents (presumably Cys488 and Cys261, Cys268 and/or Cys480)
As to B1, the “(Lipid/CYP2E1)50%” value in data set [1] turned out to be 5890 lipid-to-P450 molar ratio; in data set [2], 393 lipid-to-P450 molar ratio; in data set [3] it was 383 lipid-to-P450 molar ratio; in data set [4], 4320 lipid-to-P450 molar ratio; in data set [5], 2440 lipid-to-P450 molar ratio.
